Columns and labels:
[1] = target: T1, Claudin 18.2 (CLDN18.2), expressed on CHOS-CLDN 18.2 / HEK293-CLDN 18.2 / HCC827-CLDN 18.2 cells (human, UniProt P56856-2 1-261); assay: FACS, CHOS-CLDN18.2 cells
T1 construct: whole, on cells; The species is not repeated for the CHOS-CLDN 18.2 cells; also called claudin-18A2

[2] = target: T1, Claudin 18.2 (CLDN18.2), expressed on …; assay: FACS, CHOS-CLDN18.2 cells, 5 µg/ml
[3] = target: T1, Claudin 18.2 (CLDN18.2), expressed on …; assay: FACS, CHOS-CLDN18.2 cells, 20 µg/ml
[4] = target: T1, Claudin 18.2 (CLDN18.2), expressed on …; assay: FACS, CHOS-CLDN18.2 cells, 10 µg/ml
[5] = target: T1, Claudin 18.2 (CLDN18.2), expressed on …; assay: FACS, CHOS-CLDN18.2 cells, 0.005 µg/ml
[6] = target: T1, Claudin 18.2 (CLDN18.2), expressed on …; assay: FACS, CHOS-CLDN18.2 cells, 0.020 µg/ml
[7] = target: T1, Claudin 18.2 (CLDN18.2), expressed on …; assay: FACS, CHOS-CLDN18.2 cells, 0.078 µg/ml
[8] = target: T1, Claudin 18.2 (CLDN18.2), expressed on …; assay: FACS, CHOS-CLDN18.2 cells, 0.313 µg/ml
[9] = target: T1, Claudin 18.2 (CLDN18.2), expressed on …; assay: FACS, CHOS-CLDN18.2 cells, 1.250 µg/ml
[10] = target: T1, Claudin 18.2 (CLDN18.2), expressed on …; assay: FACS, CHOS-CLDN18.2 cells, 0 µg/ml (background)
[11] = target: T1, Claudin 18.2 (CLDN18.2), expressed on …; assay: FACS, MFI on CHOS-CLDN18.2 over MFI on CHOS-CLDN18.1, 10 µg/ml
[12] = target: T1, Claudin 18.2 (CLDN18.2), expressed on …; assay: cell-based or functional assay
[13] = target: T2, PD-L1 Protein, Cynomolgus, Recombinant (His Tag) (cynomolgus, UniProt G7PSE7 19-239); assay: SPR, Biacore T200, antibody captured
T2 construct: Bought protein; also called QPP10.1; cynoPD-L1; not shown: His tag
T2 sequence (G7PSE7 entry or part of it): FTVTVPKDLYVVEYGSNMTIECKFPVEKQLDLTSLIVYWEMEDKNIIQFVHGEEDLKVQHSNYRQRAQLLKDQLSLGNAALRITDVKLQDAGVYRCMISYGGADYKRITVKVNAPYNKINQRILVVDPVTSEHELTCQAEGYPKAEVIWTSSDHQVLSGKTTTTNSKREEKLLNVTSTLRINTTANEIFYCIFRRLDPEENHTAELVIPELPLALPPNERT

[14] = target: T3, Biotin QP004.3 (biotin-PDL1-FC) (human, UniProt Q9NZQ7 19-238, limits assumed, biotinylated (sites not given)); assay: PD-L1 binding ELISA, antibody coated, biotin-PDL1-FC titrated
T3 sequence (Q9NZQ7 19-238 limits assumed): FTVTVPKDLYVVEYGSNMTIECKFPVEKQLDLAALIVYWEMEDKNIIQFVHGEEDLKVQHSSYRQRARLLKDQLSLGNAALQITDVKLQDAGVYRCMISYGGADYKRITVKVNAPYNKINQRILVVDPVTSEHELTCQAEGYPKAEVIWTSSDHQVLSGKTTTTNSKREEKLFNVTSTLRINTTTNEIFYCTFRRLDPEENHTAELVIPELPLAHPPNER

[15] = target: T4, PD-L1 Protein, Human, Recombinant (His Tag) (human, UniProt Q9NZQ7 19-239); assay: SPR Biacore T200, antibody captured, PD-L1 His as analyte, 1:1 binding
T4 construct: Bought protein; also called QPP09.1; SinoBiologic 10084-H08H
T4 sequence (Q9NZQ7 19-239 limits assumed): as the sequence (G7PSE7 entry or part of it) above, with T33A, S34A, N62S, Q68R, R82Q, L173F, A185T, I192T, L215H counted along it

[16] = target: T5, PD-L1 Protein, Cynomolgus, Recombinant (His Tag) (cynomolgus); assay: as above
T5 construct: Bought protein; also called QPP10.1; SinoBiologic 90251-C08H

[17] = target: T3, Biotin QP004.3 (biotin-PDL1-FC); assay: PD-L1/PD-1 blocking ELISA, PD1-FC coated; row labelled EC50; competitor PD1-FC

Row | Binder | EC50 [1] [µg/mL] | max [1] | FACS reading [2] | FACS reading [3] | MFI [4] | FACS reading [5] | FACS reading [6] | FACS reading [7] | FACS reading [8] | FACS reading [9] | FACS reading [10] | CLDN18.2/CLDN18.1 (MFI ratio) [11] | binding result [13] | other results
1 | QP190191 (antibody, human IgG1, V domains shown, Chimeric; also called 36A2; mouse-derived chimeric antibody QP190191) VH: EVKLVESGGGLVKPGGSLKLSCAASGFTFSNYAMSWVRQTPEKRLEWVASIISGGRTYYLDSEKGRFTISRDNARNNLYLQMSSLRSEDTAMYYCTRIYYGNSFDYWGQGTTLTVSS VL: DIVMTQSPSSQTVTAGEKVTMSCKSSQSLLNSGNQKNYLTWYQQKPGQPPKLLIYWASTRESGVPDRFTGSGSGTDFTLTISNMQAEDLAVYYCQNDYSYPFTFGSGTKLEIK | 0.354 | 148000 | 148000 | 88700 | 450000 | 2840 | 8000 | 15700 | 54200 | 114000 | 729 | 423 | – | –
2 | QP14371435 (antibody, human IgG1, kappa, V domains shown, Humanized from QP190191) VH: EVQLVESGGGLVKPGGSLRLSCAASGFTFSNYAMSWVRQAPGKGLEWVASIISGGRTYYLDSEKGRFTISRDNAKNSLYLQMNSLRAEDTAVYYCTRIYYGNSFDYWGQGTLVTVSS VL: DIVMTQSPDSLAVSLGERATISCKSSQSLLNSGNQKNYLTWYQQKPGQPPKLLIYWASTRESGVPDRFTGSGSGTDFTLTISSLQAEDVAVYYCQNDYSYPFTFGQGTKLEIKR | 0.38 | 197000 | 197000 | 134000 | 512000 | 4130 | 10200 | 18000 | 72000 | 145000 | 732 | 497 | – | –
3 | QP14361435 (antibody, human IgG1, kappa, V domains shown, Humanized from QP190191) VH: EVQLVESGGGLVKPGGSLRLSCAASGFTFSNYAMSWVRQAPGKGLEWVSSIISGGRTYYLDSEKGRFTISRDNAKNSLYLQMNSLRAEDTAVYYCTRIYYGNSFDYWGQGTLVTVSS VL: DIVMTQSPDSLAVSLGERATISCKSSQSLLNSGNQKNYLTWYQQKPGQPPKLLIYWASTRESGVPDRFTGSGSGTDFTLTISSLQAEDVAVYYCQNDYSYPFTFGQGTKLEIKR | 0.466 | 182000 | 182000 | 183000 | 504000 | 3390 | 8520 | 23600 | 75900 | 141000 | 713 | 550 | – | –
4 | QP14371433 (antibody, human IgG1, kappa, V domains shown, Humanized from QP190191; also called QP14331437) VH: EVQLVESGGGLVKPGGSLRLSCAASGFTFSNYAMSWVRQAPGKGLEWVASIISGGRTYYLDSEKGRFTISRDNAKNSLYLQMNSLRAEDTAVYYCTRIYYGNSFDYWGQGTLVTVSS VL: DIVMTQSPDSLAVSLGERATINCKSSQSLLNSGNQKNYLTWYQQKPGQPPKLLIYWASTRESGVPDRFSGSGSGTDFTLTISSLQAEDVAVYYCQNDYSYPFTFGQGTKLEIKR | 0.36 | 174000 | 174000 | 115000 | 433000 | 3730 | 10800 | 17700 | 65900 | 133000 | 754 | 448 | – | EC50 of killing, ADCC (PBMC, HEK293-CLDN18.2 cells) [12]: 0.0162 µg/mL; Killing percentage, ADCC (PBMC, HEK293-CLDN18.2 cells), 0 µg/ml [12]: 9.02%; Killing percentage, ADCC (PBMC, HEK293-CLDN18.2 cells), 0.0001024 µg/ml [12]: 8.31%; Killing percentage, ADCC (PBMC, HEK293-CLDN18.2 cells), 0.000512 µg/ml [12]: 10.5%; Killing percentage, ADCC (PBMC, HEK293-CLDN18.2 cells), 0.00256 µg/ml [12]: 13.3%; Killing percentage, ADCC (PBMC, HEK293-CLDN18.2 cells), 0.0128 µg/ml [12]: 31.3%; Killing percentage, ADCC (PBMC, HEK293-CLDN18.2 cells), 0.064 µg/ml [12]: 41.5%; Killing percentage, ADCC (PBMC, HEK293-CLDN18.2 cells), 0.32 µg/ml [12]: 49.6%; Killing percentage, ADCC (PBMC, HEK293-CLDN18.2 cells), 1.6 µg/ml [12]: 56.4%; Killing percentage, ADCC (PBMC, HEK293-CLDN18.2 cells), 8 µg/ml [12]: 53.8%; Killing percentage, ADCC (PBMC, HEK293-CLDN18.2 cells), 40 µg/ml [12]: 52.3%
5 | QP322 (Fc fusion, Humanized from QP1162; also called 1162-V3; humanized nanobody QP322; not shown: human IgG1-FC constant region fused to the C terminal of the VHH) EVQLLESGGGLVQPGGSLRLSCAASGFTYGTYAMSWFRQAPGKGREGVACIDIYGRASYTDPVKGRFTISQDNSKNTLYLQMNSLKAEDTAVYYCAARDFGYCTASWVHEGFSRYWGQGTLVTVSS | – | – | – | – | – | – | – | – | – | – | – | – | binds | –
6 | QP322 (Fc fusion, Humanization design of QP1162; VHH at the N-terminal of FC; also called 1162-V3; QD322; not shown: human IgG1-FC constant region fused to the C terminal of the VHH) EVQLLESGGGLVQPGGSLRLSCAASGFTYGTYAMSWFRQAPGKGREGVACIDIYGRASYTDPVKGRFTISQDNSKNTLYLQMNSLKAEDTAVYYCAARDFGYCTASWVHEGFSRYWGQGTLVTVSS | – | – | – | – | – | – | – | – | – | – | – | – | – | EC50 [14]: 0.00753 µg/mL; Kd [15]: 2.37 nM; koff [15]: 0.00311 s⁻¹; kon [15]: 1.31e+06 M⁻¹ s⁻¹; Kd [16]: 5.39 nM; koff [16]: 0.00354 s⁻¹; kon [16]: 657000 M⁻¹ s⁻¹; IC50 [17]: 5.12 nM
7 | QP1162 (VHH, also called nanobody QP1162; camel nanobody QP1162) VHH: QVQLVESGGGSVQSGGSLRLSCAASGFTYGTYAMSWFRQAPGKEREGVACIDIYGRASYTDPVKGRFTISQDNAKNTLYLQMNSLKPEDTAMYYCAARDFGYCTASWVHEGFSRYWGQGTQVTVSS | – | – | – | – | – | – | – | – | – | – | – | – | binds | –
8 | QP325 (Fc fusion, Humanized from QP1166; also called 1166-V3; humanized antibody QP325; not shown: human IgG1-FC constant region fused to the C terminal of the VHH) EVQLLESGGGLVQPGGSLRLSCAASGFTYGTYAMSWFRQAPGKGLEGVACIDIYGRTSYTDPVKGRFTISQDNSKNTLYLQMNSLRAEDTAVYYCAARDFGYCTASWVHEGFSRYWGQGTLVTVSS | – | – | – | – | – | – | – | – | – | – | – | – | binds | –
